According to IntAct's records for PubMed 20148946:

Target: T1, unkl_human UNKL (UniProt Q9H9P5)
T1 sequence: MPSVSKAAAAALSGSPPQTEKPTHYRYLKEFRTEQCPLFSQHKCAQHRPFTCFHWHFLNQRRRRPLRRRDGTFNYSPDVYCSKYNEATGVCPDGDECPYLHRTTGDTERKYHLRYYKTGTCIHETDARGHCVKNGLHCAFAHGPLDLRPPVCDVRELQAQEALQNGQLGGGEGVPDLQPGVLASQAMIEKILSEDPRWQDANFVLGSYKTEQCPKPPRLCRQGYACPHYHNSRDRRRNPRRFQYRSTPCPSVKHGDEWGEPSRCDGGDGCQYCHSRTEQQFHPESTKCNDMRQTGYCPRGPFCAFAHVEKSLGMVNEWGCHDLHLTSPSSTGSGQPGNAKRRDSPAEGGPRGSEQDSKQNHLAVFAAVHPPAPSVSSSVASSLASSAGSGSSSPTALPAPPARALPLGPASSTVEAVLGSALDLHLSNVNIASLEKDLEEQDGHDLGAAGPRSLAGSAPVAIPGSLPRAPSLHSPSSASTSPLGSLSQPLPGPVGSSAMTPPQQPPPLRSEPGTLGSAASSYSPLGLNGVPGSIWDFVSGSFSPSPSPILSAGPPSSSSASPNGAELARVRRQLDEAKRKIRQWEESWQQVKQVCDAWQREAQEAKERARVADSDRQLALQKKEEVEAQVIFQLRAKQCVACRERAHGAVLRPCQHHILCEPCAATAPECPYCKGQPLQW

Substance: Ras-related C3 botulinum toxin substrate 1 (Homo sapiens) (from UniProt P63000) Q61L
- effect of a mutation on the interaction: increasing interaction
